For this test, the target named is extracellular domain of Transferrin Receptor 1 (UniProt P02786 89-760). As to the kind of experiment: BLI. On the technique in general: In BLI a coated tip is dipped into the sample, and binding shifts an interference pattern.

Usually Kd stands for the constant that tells how readily two partners part at equilibrium.

Starred links: 1 amine or outer side, 2 acyl side, 3 side chain; linkers in the order of their positions; H or OH if unused. Positions of bridges follow the written chain, without caps; N, C: chain ends. No end group written: not given here. TBMB = c1c(C[*:1])cc(C[*:3])cc1C[*:2]

Chain of extracellular domain of Transferrin Receptor 1 (P02786 89-760): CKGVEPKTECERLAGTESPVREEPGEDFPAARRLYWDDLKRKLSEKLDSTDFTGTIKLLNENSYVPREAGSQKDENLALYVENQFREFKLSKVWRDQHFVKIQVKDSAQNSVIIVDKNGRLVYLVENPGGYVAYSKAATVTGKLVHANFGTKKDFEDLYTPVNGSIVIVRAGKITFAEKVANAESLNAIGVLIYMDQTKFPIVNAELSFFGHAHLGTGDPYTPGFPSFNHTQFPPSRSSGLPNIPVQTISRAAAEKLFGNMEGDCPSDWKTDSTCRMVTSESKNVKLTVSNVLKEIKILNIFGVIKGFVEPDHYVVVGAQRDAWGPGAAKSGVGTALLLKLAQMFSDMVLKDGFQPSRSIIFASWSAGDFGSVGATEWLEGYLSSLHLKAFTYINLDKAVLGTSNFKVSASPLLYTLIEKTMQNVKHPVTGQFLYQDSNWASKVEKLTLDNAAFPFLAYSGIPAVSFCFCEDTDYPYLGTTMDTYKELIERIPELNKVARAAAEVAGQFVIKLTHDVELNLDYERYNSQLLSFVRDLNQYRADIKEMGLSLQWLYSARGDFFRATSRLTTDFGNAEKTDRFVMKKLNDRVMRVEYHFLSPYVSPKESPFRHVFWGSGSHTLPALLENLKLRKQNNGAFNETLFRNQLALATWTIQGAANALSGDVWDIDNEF

For the molecule CVHWDCRQWC (linker 1-6-10 via TBMB) [BrainBike-4 as used in biolayer interferometry], the Kd stood at 25 µM.

Source of the values: paper PMC10763564 (2023).
